# Where a chain is given by its changes, count along the chain named. Numbers in names are those of the source.
# B1: trASADH with mutation D196A (enzyme)
# chain: SKKRCGVLGATGAVGTRFILLLSQHPLLELVAVGASDRSSGKKYRDAVRWKQSAPMPAKVADLTVRCCDPAEFSDCDIIFSGLDPDAAGEIEMAFLKANFAVFSNAKNYRLDPMVPLVVPLVNAGHIDVIPAQRKHFGLDKGMLVCNSNCAVVGLVVPAKALIQKFGPIESVSMVTMQAVSGAGYPGVSSMAIFDNIVPYIPGEEGKISSEARKILGDLNSDLAGFSDQKPLQISVACNRVPVLDGHTVCASLRFVNRPPPTASQVREALREYKPEVQTLGCPSAPKMSIHVMDEVDRPQPRLDRETEGGYACTVGRIREDDSDVFDIQFVALSHNTVLGASGSSILNAESAILKGFV
# notes: Aspartate-β-semialdehyde dehydrogenase of Trichophyton rubrum BMU01672 (362 aa) with the point mutation D196A; parent as m1; source: E. coli B834(DE3) or Rosetta(DE3), purified (Ni-NTA, Hitrap Q, Superdex 200)
# B2: trASADH with mutation F198A (enzyme)
# chain: B1 chain with A192D, F194A
# notes: Aspartate-β-semialdehyde dehydrogenase of Trichophyton rubrum BMU01672 (362 aa) with the point mutation F198A; parent as m1; also called trASADH-F198A; Mutant F198A; source: E. coli B834(DE3) or Rosetta(DE3), purified (Ni-NTA, Hitrap Q, Superdex 200)
# B3: trASADH with mutation R309A (enzyme)
# chain: B1 chain with A192D, R305A
# notes: Aspartate-β-semialdehyde dehydrogenase of Trichophyton rubrum BMU01672 (362 aa) with the point mutation R309A; parent as m1; source: E. coli B834(DE3) or Rosetta(DE3), purified (Ni-NTA, Hitrap Q, Superdex 200)
# B4: Aspartate-β-semialdehyde dehydrogenase from Candida albicans (enzyme)
# chain: MSVKKAGVLGATGSVGQRFILLLSKHPEFEIHALGASSRSAGKKYKDAASWKQTETLPETEQDIVVQECKPEGNFLECDVVFSGLDADVAGDIEKSFVEAGLAVVSNAKNYRREKDVPLVVPIVNPEHIDVVENKVKQAVSKGGKKPGFIICISNCSTAGLVAPLKPLVEKFGPIDALTTTTLQAISGAGFSPGVSGMDILDNIVPYISGEEDKLEWETKKILGGVNAEGTEFVPIPESEMKVSAQCNRVPVIDGHTECISLRFANRPAPSVEDVKQCLREYECAASKLGCHSAPKQTIHVLDQPDRPQPRLDRDRDSGYGVSVGRIREDSLLDFKMVVLSHNTIIGAAGAGILIAEILKAKNII
# notes: Aspartate-β-semialdehyde dehydrogenase of Candida albicans (fungal ASADH); The construct used for native PAGE is not described; also called caASADH; C. albicans ASADH
# B5: Aspartate-β-semialdehyde dehydrogenase from Trichophyton rubrum, wild type (enzyme)
# chain: B1 chain with A192D
# notes: Aspartate-β-semialdehyde dehydrogenase (ASADH) of Trichophyton rubrum BMU01672, wild type, 362 aa as printed; theoretical monomer 38.7 kDa; The apo crystal (4ZHS) was a selenomethionine derivative; Cloned in pET-28a; also called trASADH; ASADH; source: E. coli B834(DE3) or Rosetta(DE3), purified (Ni-NTA, Hitrap Q, Superdex 200)
# B6: trASADH with mutation Y189A (enzyme)
# chain: B1 chain with Y185A, A192D
# notes: Aspartate-β-semialdehyde dehydrogenase of Trichophyton rubrum BMU01672 (362 aa) with the point mutation Y189A; parent as m1; also called trASADH-Y189A; source: E. coli B834(DE3) or Rosetta(DE3), purified (Ni-NTA, Hitrap Q, Superdex 200)
# B7: trASADH with the triple mutation R309A-D196A-F198A (enzyme)
# chain: B1 chain with F194A, R305A
# notes: Aspartate-β-semialdehyde dehydrogenase of Trichophyton rubrum BMU01672 (362 aa) with R309A, D196A and F198A; parent as m1; also called trASADH R309A-D196A-F198A; dimeric triple mutant; source: E. coli B834(DE3) or Rosetta(DE3), purified (Ni-NTA, Hitrap Q, Superdex 200)
# Experiments:
# [1] = target: Aspartate-β-semialdehyde dehydrogenase from Aspergillus fumigatus (A. fumigatus); assay: native gel or EMSA; native PAGE (3-12%), migration against molecular weight standards
# [2] = target: Aspartate-β-semialdehyde dehydrogenase from Vibrio cholerae (V. cholerae); assay: as above
# [3] = target: Aspartate-β-semialdehyde dehydrogenase from Streptococcus pneumoniae (Streptococcus pneumoniae); assay: as above
# [4] = target: Aspartate-β-semialdehyde dehydrogenase from Streptococcus pneumoniae (Streptococcus pneumoniae); assay: AUC; sedimentation velocity, 4 °C, 20 mM Tris pH 8.0, 100 mM NaCl, all proteins at OD280 = 0.85, 50,000 rpm, Sedfit
# [5] = target: T1, trASADH (T. rubrum aspartate-β-semialdehyde dehydrogenase) (Trichophyton rubrum, UniProt A0A080WMA9); assay: isothermal titration calorimetry; type: binding
# T1 construct: gene TERG_03598; full length 362 aa, N-terminal 6xHis tag (pET-28a), E. coli; homotetramer
# T1 sequence (A0A080WMA9 1-362): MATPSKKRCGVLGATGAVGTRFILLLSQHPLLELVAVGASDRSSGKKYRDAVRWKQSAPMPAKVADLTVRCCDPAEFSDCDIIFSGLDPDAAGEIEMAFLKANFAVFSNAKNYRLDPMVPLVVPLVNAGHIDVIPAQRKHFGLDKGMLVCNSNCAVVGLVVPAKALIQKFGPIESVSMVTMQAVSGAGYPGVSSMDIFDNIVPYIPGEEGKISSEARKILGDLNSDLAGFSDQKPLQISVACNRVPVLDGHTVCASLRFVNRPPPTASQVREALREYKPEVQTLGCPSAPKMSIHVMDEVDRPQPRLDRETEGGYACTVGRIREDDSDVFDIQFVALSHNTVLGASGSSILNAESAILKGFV
# [6] = target: Aspartate-β-semialdehyde dehydrogenase from Cryptococcus neoformans (C. neoformans); assay: native gel or EMSA; native PAGE (3-12%), migration against molecular weight standards
# [7] = target: the molecule itself; assay: SEC; Superose 6 PC3.2/30, 20 mM Tris-HCl pH 8.0, 100 mM NaCl, ~3 mg/ml, calibrated with mass standards (also the final Superdex 200 purification step)
# [8] = target: the molecule itself; assay: cell-based or functional assay
# [9] = target: the molecule itself; assay: AUC; sedimentation velocity, 4 °C, 20 mM Tris pH 8.0, 100 mM NaCl, all proteins at OD280 = 0.85, 50,000 rpm, Sedfit
# [10] = target: the molecule itself; assay: native gel or EMSA; native PAGE (3-12%), migration against molecular weight standards
molecule,measurement,setting,value
Aspartate-β-semialdehyde dehydrogenase from Aspergillus fumigatus (enzyme),stoichiometry N,[1],4
Aspartate-β-semialdehyde dehydrogenase from Vibrio cholerae (enzyme),stoichiometry N,[2],2
Aspartate-β-semialdehyde dehydrogenase from Streptococcus pneumoniae (enzyme),stoichiometry N,[3],2
same,stoichiometry N,[4],2
NC(=O)c1ccc[n+]([C@@H]2O[C@H](COP(=O)(O)OP(=O)(O)OC[C@H]3O[C@@H](n4cnc5c(N)ncnc54)[C@H](OP(=O)(O)O)[C@@H]3O)[C@@H](O)[C@H]2O)c1 [NADP],Kd,[5],76.9 µM
Aspartate-β-semialdehyde dehydrogenase from Cryptococcus neoformans (enzyme),stoichiometry N,[6],4
B1,stoichiometry N,[7],4
same,"enzymatic activity (kcat) at 25 °C, tetrameric single mutant",[8],15.9 s⁻¹
B2,stoichiometry N,[9],4
same,"enzymatic activity (kcat) at 25 °C, tetrameric single mutant",[8],15.7 s⁻¹
B3,stoichiometry N,[7],4
same,"enzymatic activity (kcat) at 25 °C, tetrameric single mutant",[8],12.9 s⁻¹
B4,stoichiometry N,[10],4
B5,stoichiometry N,[9],4
B6,stoichiometry N,[9],4
B7,stoichiometry N,[9],2
